The target of the assay is T1, MBP-COP1 (Arabidopsis, UniProt P43254 1-675).
T1 sequence (looked up): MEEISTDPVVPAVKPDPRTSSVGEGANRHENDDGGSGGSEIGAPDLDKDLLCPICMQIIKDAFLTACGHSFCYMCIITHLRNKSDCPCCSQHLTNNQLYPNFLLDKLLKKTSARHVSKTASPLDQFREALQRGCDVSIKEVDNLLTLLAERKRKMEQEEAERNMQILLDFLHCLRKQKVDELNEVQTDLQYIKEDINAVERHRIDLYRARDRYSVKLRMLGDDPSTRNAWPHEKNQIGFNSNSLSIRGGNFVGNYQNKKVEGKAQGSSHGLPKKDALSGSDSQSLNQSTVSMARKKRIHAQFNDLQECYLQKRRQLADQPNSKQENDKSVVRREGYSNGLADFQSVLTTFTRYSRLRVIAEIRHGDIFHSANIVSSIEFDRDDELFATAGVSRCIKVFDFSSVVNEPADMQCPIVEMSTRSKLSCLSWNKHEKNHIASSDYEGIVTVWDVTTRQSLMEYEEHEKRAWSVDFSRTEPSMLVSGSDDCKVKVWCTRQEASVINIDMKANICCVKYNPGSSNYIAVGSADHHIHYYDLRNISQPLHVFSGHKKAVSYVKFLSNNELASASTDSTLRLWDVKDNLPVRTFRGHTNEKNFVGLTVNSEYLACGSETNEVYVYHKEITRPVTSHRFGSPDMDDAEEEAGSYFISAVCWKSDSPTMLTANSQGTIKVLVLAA
The assay can be described thus: pull-down.

B1: GST-WDL3 (natural protein)
chain: not shown
For the molecule B1, the binding result is “binds”.

The record behind these values is article PMC5699047 (Proceedings of the National Academy of Sciences of the …, 2017).
